{
  "source": "paper doi:10.1101/2023.05.24.542197",
  "target": "Dicer (endogenous human Dicer) (human (endogenous in HeLa and HEK 293T)) (UniProt Q9UPY3)",
  "sequence (Q9UPY3 whole entry)": "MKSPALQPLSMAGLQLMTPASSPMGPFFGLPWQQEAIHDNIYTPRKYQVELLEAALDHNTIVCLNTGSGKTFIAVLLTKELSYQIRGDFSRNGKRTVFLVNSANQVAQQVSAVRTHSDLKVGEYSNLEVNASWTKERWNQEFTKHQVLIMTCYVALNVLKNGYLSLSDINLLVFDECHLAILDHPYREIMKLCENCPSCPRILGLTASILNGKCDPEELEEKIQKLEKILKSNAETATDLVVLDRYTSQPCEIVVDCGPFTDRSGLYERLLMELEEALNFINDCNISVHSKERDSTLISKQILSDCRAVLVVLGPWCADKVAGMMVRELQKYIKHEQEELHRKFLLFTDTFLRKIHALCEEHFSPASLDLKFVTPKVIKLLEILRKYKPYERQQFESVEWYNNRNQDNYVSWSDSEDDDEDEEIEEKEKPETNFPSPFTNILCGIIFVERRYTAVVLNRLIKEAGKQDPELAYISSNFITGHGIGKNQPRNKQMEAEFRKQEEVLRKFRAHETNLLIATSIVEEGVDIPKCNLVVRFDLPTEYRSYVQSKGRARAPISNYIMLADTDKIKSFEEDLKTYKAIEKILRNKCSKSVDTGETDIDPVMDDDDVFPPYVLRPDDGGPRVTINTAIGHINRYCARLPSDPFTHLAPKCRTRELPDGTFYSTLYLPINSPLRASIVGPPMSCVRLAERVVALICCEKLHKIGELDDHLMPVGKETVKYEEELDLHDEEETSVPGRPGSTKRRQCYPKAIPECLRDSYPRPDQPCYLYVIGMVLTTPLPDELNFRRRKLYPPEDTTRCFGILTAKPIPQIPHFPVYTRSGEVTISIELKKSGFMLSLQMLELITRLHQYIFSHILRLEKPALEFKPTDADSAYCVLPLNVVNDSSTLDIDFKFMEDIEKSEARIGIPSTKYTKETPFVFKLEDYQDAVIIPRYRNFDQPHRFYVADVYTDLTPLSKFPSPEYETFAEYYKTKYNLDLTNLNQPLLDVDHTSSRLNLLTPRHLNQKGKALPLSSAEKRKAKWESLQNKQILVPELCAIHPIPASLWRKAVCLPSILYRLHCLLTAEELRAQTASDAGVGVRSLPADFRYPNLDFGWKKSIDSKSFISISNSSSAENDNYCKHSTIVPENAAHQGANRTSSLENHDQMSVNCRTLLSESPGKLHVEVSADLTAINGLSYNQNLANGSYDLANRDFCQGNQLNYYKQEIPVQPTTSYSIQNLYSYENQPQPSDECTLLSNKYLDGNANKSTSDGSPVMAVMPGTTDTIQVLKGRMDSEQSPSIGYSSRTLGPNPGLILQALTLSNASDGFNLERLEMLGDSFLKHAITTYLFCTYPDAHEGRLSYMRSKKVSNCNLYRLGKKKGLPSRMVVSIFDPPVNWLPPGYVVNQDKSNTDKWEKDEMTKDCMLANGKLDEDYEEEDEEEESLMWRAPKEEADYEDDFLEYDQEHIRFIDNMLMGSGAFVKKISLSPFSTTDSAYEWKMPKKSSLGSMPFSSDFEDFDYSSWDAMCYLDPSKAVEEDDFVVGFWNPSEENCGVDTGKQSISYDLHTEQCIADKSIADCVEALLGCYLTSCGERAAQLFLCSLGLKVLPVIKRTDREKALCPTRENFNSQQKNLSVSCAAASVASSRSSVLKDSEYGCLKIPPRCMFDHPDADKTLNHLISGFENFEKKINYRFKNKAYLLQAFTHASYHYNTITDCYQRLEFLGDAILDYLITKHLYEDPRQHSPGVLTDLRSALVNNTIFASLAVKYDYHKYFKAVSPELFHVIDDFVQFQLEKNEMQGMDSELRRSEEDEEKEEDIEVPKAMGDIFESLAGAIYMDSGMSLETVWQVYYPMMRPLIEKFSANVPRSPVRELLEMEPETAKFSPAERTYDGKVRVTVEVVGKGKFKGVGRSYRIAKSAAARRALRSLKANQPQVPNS",
  "assay": "proximity ligation",
  "data": [
    {"substance": "Flag-Gag (pCI-Neo-Flag-Gag) (natural protein)", "values": [
      {"measurement": "PLA proximity events in a cell (highest) (proximity events per cell)", "value": "< 36"}
    ]}
  ]
}
